Source: patent publication US20190085028A1

Molecular target: NMDA receptor on rat hippocampal neurons (E18 Sprague Dawley primary culture) (rat), P35439
Assay: cell-based or functional assay

Binder: GEDDYQDAQDLIRDKSN [Peptide SEQ ID NO: 3 (…)]
- IC50 of inhibition of NMDA receptor-evoked current (dose-response curve, FIG. 3H): 156 µM
- inhibition of NMDA receptor-evoked current (whole-cell patch clamp), 10 µM peptide: 14%
- inhibition of NMDA receptor-evoked current (whole-cell patch clamp), 100 µM peptide: 40%
- inhibition of NMDA receptor-evoked current (whole-cell patch clamp), 500 µM peptide: 66.5%
